Series [1] addresses Tth DNA ligase wild type (Thermus thermophilus) (UniProt P26996). To be noted: initial ligation rate, 65 C.
Series [2] deals with Aquifex sp. DNA ligase (Aquifex sp.) (UniProt O66880). The settings on record: initial ligation rate, 65 C.
Series [3] addresses T1, T4 DNA ligase (Enterobacteria phage T4?) (UniProt P00970).
T1 sequence: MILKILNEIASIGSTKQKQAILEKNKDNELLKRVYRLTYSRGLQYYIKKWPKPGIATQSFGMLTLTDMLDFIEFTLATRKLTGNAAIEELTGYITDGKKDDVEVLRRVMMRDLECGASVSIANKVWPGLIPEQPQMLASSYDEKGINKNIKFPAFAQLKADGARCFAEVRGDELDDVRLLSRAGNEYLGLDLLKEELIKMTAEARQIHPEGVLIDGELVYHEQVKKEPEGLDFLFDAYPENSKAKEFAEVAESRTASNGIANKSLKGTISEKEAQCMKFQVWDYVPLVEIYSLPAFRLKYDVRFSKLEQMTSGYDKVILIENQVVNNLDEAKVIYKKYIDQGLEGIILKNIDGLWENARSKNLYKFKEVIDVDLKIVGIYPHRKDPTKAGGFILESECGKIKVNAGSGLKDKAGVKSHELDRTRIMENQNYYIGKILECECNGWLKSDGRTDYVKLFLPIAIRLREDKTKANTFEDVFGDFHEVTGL
To be noted: initial ligation rate, 0.5 nM enzyme, 37 C.

Series [4] has as its target Thermus sp. AK16D DNA ligase (Thermus sp. AK16D) (UniProt Q9ZFY8). To be noted: initial ligation rate, 65 C.
For series [5], the target named is Tth DNA ligase K294R K294R (Thermus thermophilus) (UniProt P26996). To be noted: initial ligation rate, 65 C.
Setting [6] is: 12.5 nM enzyme, NAD+, 10 mM MgCl2.

The values that follow come from US20030190634.

Like-named read-outs stand apart in the source and are kept apart here.

Thermus sp. AK16D DNA ligase (Thermus sp. AK16D), sequence (Q9ZFY8 whole entry): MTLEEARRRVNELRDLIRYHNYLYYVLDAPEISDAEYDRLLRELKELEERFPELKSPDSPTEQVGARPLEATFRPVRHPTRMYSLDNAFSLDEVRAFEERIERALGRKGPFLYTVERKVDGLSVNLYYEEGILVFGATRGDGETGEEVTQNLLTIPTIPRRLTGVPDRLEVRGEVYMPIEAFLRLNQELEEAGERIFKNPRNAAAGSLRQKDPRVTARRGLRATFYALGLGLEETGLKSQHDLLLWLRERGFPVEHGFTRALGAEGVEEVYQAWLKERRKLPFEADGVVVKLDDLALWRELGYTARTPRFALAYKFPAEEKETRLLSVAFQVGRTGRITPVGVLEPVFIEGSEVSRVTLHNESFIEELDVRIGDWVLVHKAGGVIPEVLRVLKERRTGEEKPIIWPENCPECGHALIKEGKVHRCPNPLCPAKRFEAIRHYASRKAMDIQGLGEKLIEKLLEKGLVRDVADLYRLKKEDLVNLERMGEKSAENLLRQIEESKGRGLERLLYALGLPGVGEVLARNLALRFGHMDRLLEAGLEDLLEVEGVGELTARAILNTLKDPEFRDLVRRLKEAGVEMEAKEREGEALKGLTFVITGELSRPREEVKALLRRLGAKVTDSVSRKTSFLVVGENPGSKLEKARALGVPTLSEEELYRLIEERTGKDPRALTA
Aquifex sp. DNA ligase (Aquifex sp.), sequence (O66880 whole entry): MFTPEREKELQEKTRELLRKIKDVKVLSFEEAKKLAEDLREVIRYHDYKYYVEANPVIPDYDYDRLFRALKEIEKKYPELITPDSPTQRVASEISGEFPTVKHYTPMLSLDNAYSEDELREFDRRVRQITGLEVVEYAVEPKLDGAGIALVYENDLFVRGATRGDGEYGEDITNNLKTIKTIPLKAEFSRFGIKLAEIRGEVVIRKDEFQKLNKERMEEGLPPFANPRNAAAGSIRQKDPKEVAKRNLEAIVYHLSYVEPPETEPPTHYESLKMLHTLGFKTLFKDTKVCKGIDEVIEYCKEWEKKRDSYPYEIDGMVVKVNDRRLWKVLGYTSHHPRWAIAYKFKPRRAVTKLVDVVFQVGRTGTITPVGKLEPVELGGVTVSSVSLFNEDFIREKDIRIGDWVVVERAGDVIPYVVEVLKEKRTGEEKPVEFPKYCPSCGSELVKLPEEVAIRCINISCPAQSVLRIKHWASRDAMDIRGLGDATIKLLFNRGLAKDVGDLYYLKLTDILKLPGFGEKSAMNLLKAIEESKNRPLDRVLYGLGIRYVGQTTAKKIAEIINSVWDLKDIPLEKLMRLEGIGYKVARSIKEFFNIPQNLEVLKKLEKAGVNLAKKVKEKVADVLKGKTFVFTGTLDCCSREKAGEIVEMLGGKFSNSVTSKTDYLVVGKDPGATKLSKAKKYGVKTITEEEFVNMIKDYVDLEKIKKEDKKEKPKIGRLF
Tth DNA ligase wild type (Thermus thermophilus), sequence (P26996 whole entry): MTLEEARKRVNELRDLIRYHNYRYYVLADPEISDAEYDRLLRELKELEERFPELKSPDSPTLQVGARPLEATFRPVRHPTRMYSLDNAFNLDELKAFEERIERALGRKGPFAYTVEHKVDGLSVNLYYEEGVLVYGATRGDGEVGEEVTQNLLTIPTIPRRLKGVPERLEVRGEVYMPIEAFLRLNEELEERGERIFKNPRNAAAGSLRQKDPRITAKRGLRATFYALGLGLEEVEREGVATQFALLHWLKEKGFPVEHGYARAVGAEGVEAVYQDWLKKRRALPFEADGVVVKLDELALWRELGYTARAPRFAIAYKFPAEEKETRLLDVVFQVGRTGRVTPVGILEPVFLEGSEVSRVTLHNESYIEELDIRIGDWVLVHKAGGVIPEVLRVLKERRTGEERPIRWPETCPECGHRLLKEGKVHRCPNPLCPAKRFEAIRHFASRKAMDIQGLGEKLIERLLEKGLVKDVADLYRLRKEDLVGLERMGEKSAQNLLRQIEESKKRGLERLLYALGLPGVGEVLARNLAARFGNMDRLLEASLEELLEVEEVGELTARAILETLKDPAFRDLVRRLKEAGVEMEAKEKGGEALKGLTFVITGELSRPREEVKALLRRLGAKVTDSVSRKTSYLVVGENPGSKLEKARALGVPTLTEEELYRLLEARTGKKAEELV
Tth DNA ligase K294R K294R (Thermus thermophilus), sequence (P26996 whole entry K294R): as the sequence (P26996 whole entry) above, with K294R counted along it

nicked duplex, C-G match at 3'-end: the activity (fmol/ (time unit not given)) in series [1] (1.25 nM enzyme as printed, NAD+, 10 mM MgCl2) was determined as 55; in series [2] (setting [6]), 99; in series [3] (10 mM MgCl2, 12.5 nM substrate), 140; in series [4] (setting [6]) it was 130; in series [5] (setting [6]), 150.

Consider “nicked duplex, T-G mismatch at penultimate 3'-end”, for which the activity (fmol/ (time unit not given)) in series [1] (fidelity 190) was 0.29; in series [2] (fidelity 380) it was 0.26; in series [3] (fidelity 19) it was 7.1; in series [4] (fidelity 1100), 0.12; in series [5] (fidelity 400) it was 0.38.

Regarding nicked duplex, T-G mismatch at 3'-end, the activity (fmol/ (time unit not given)) in series [1] (fidelity 840) came out at 0.065; in series [2] (fidelity 3500), 0.029; in series [3] (fidelity 50), 2.8; in series [4] (fidelity 5200) it was 0.025; in series [5] (fidelity 5300), 0.029.
